Measurements taken from publication PMC12866175 (European journal of nuclear medicine and molecular imaging, 2021).

Test: Radiation dosimetry and clearance kinetics from biodistribution data
Type: in vivo, BALB/c mice

## C[C@@H](O)[C@H](NC(=O)[C@@H]1CSSC[C@H](NC(=O)[C@@H](Cc2ccccc2)NC(=O)CN2CCN(CC(=O)O)CCN(CC(=O)O)CCN(CC(=O)O)CC2)C(=O)N[C@@H](Cc2ccc(O)cc2)C(=O)N[C@H](Cc2c[nH]c3ccccc23)C(=O)N[C@@H](CCCCN)C(=O)N[C@@H]([C@@H](C)O)C(=O)N1)C(=O)O [[^225Ac]Ac-DOTA-TATE, metal not drawn]
^217At, Muscle
  Initial activity/organ, A○: 0.0052 kBq
^217At, Pancreas
  Absorbed dose/injected activity: 0.0003 Gy/kBq
  Accumulated activity/organ, A~: 1.1933 kBq×h
  Decay rate constant, λeff: 0.0080 h⁻¹
  Initial activity/organ, A○: 0.0169 kBq
^217At, Salivary
  Absorbed dose/injected activity: 0.0002 Gy/kBq
  Accumulated activity/organ, A~: 0.7036 kBq×h
  Decay rate constant, λeff: -0.0028 h⁻¹
  Initial activity/organ, A○: 0.0037 kBq
^217At, Skin
  Absorbed dose/injected activity: 0.0001 Gy/kBq
  Accumulated activity/organ, A~: 0.6489 kBq×h
  Decay rate constant, λeff: -0.0015 h⁻¹
  Initial activity/organ, A○: 0.0039 kBq
^217At, Spleen
  Absorbed dose/injected activity: 0.0004 Gy/kBq
  Accumulated activity/organ, A~: 1.0604 kBq×h
  Decay rate constant, λeff: 0.0030 h⁻¹
  Initial activity/organ, A○: 0.0097 kBq
^217At, Stomach
  Absorbed dose/injected activity: 0.0005 Gy/kBq
  Accumulated activity/organ, A~: 3.0452 kBq×h
  Decay rate constant, λeff: 0.0170 h⁻¹
^221Fr, Blood
  Absorbed dose/injected activity: 0.0001 Gy/kBq
  Accumulated activity/organ, A~: 0.5594 kBq×h
  Decay rate constant, λeff: -0.0071 h⁻¹
  Initial activity/organ, A○: 0.0019 kBq
^221Fr, Bone
  Absorbed dose/injected activity: 0.0003 Gy/kBq
  Accumulated activity/organ, A~: 1.0195 kBq×h
  Decay rate constant, λeff: 0.0100 h⁻¹
  Initial activity/organ, A○: 0.0170 kBq
^221Fr, Brain
  Absorbed dose/injected activity: 0.0001 Gy/kBq
  Accumulated activity/organ, A~: 0.7934 kBq×h
  Decay rate constant, λeff: -0.0044 h⁻¹
  Initial activity/organ, A○: 0.0036 kBq
^221Fr, Heart
  Absorbed dose/injected activity: 0.0000 Gy/kBq
  Accumulated activity/organ, A~: 0.2102 kBq×h
  Decay rate constant, λeff: 0.0190 h⁻¹
  Initial activity/organ, A○: 0.0067 kBq
^221Fr, Intestine
  Absorbed dose/injected activity: 0.0002 Gy/kBq
  Accumulated activity/organ, A~: 7.2991 kBq×h
  Decay rate constant, λeff: 0.0130 h⁻¹
^221Fr, Kidney
  Absorbed dose/injected activity: 0.0019 Gy/kBq
  Accumulated activity/organ, A~: 12.5136 kBq×h
  Decay rate constant, λeff: 0.0190 h⁻¹
  Initial activity/organ, A○: 0.4011 kBq
^221Fr, Liver
  Absorbed dose/injected activity: 0.0014 Gy/kBq
  Accumulated activity/organ, A~: 32.1637 kBq×h
  Decay rate constant, λeff: -0.0033 h⁻¹
  Initial activity/organ, A○: 0.1612 kBq
^221Fr, Lung
  Absorbed dose/injected activity: 0.0003 Gy/kBq
  Accumulated activity/organ, A~: 1.7734 kBq×h
  Decay rate constant, λeff: 0.0080 h⁻¹
  Initial activity/organ, A○: 0.0251 kBq
^221Fr, Muscle
  Absorbed dose/injected activity: 0.0000 Gy/kBq
  Accumulated activity/organ, A~: 0.1848 kBq×h
  Decay rate constant, λeff: 0.0170 h⁻¹
  Initial activity/organ, A○: 0.0052 kBq
^221Fr, Pancreas
  Absorbed dose/injected activity: 0.0003 Gy/kBq
  Accumulated activity/organ, A~: 1.1933 kBq×h
  Decay rate constant, λeff: 0.0080 h⁻¹
  Initial activity/organ, A○: 0.0169 kBq
^221Fr, Salivary
  Absorbed dose/injected activity: 0.0002 Gy/kBq
  Accumulated activity/organ, A~: 0.7036 kBq×h
  Decay rate constant, λeff: -0.0028 h⁻¹
  Initial activity/organ, A○: 0.0037 kBq
^221Fr, Skin
  Absorbed dose/injected activity: 0.0001 Gy/kBq
  Accumulated activity/organ, A~: 0.6489 kBq×h
  Decay rate constant, λeff: -0.0015 h⁻¹
  Initial activity/organ, A○: 0.0039 kBq
^221Fr, Spleen
  Absorbed dose/injected activity: 0.0004 Gy/kBq
  Accumulated activity/organ, A~: 1.0604 kBq×h
  Decay rate constant, λeff: 0.0030 h⁻¹
  Initial activity/organ, A○: 0.0097 kBq
^221Fr, Stomach
  Absorbed dose/injected activity: 0.0004 Gy/kBq
  Accumulated activity/organ, A~: 3.0452 kBq×h
